From FireProtDB (doi:10.1016/s1570-9639(02)00548-4)
Several values for one entry are separate records, joined by “and”; a condition that tells them apart may be missing. Equal entries are not always repeated.

Details: pH 6, cacodylate 0.03 M, reversible: yes; for denaturant m value / denaturant midpoint (higher = more stable) / unfolding free energy: 25 °C, GdnHCl, KCl 0.1 M
[1] = Equus caballus, Thermal, CD, KCl

Chain of Cytochrome c wild type, P00004 (P00004 whole entry): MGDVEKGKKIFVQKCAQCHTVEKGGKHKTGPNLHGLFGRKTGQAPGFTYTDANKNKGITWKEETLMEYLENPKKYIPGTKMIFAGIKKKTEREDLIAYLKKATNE
Chain of Cytochrome c wild type, P62894 (P62894 whole entry): as the sequence (P00004 whole entry) above, with T48S, K61G, T90G counted along it

| Substance | denaturant m value (Bos taurus, Absorbance) | denaturant midpoint (higher = more stable) (Bos taurus, Absorbance) | unfolding free energy (Bos taurus, Absorbance) | denaturant m value (Bos taurus, CD) | denaturant midpoint (higher = more stable) (Bos taurus, CD) | unfolding free energy (Bos taurus, CD) | denaturant m value (Equus caballus, Absorbance) | denaturant midpoint (higher = more stable) (Equus caballus, Absorbance) | unfolding free energy (Equus caballus, Absorbance) | denaturant m value (Equus caballus, CD) | denaturant midpoint (higher = more stable) (Equus caballus, CD) | unfolding free energy (Equus caballus, CD) | Tm [1] | unfolding enthalpy (van 't Hoff) [1] |
| --- | --- | --- | --- | --- | --- | --- | --- | --- | --- | --- | --- | --- | --- | --- |
| Cytochrome c wild type, P62894 | 3.95 kcal/mol/M | 2.65 M | 10.5 kcal/mol | 4.02 kcal/mol/M and 4.03 kcal/mol/M and 3.91 kcal/mol/M | 2.63 M and 2.61 M | 10.6 kcal/mol and 10.2 kcal/mol | – | – | – | – | – | – | – | – |
| Cytochrome c wild type, P00004 | – | – | – | – | – | – | 3.53 kcal/mol/M and 2.49 kcal/mol/M and 2.87 kcal/mol/M | 2.49 M and 2.35 M and 2.37 M | 8.83 kcal/mol and 6.01 kcal/mol and 6.81 kcal/mol | 2.69 kcal/mol/M and 3.48 kcal/mol/M and 3.39 kcal/mol/M | 2.5 M and 2.4 M and 2.45 M | 6.71 kcal/mol and 8.36 kcal/mol and 8.31 kcal/mol | 26.8 °C | 19.1 kcal/mol |
